Experimental data published in the nanobody polyreactivity screen of Harvey et al. (2022).

Assay: yeast display, Sf9 membrane polyspecificity reagent, FACS + sequencing; frameworks hold sequencing errors
Outline: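 Polyreactivity labels are assigned by the sorting gate from which each nanobody was recovered. The gates were low and high (top ~1%), set on anti-HA fluorescence for expression and streptavidin fluorescence for reagent binding. Before sorting, galactose-induced (36–48 hours) yeast display cells were stained for 1 hour at 4 °C with 10% biotinylated, detergent-solubilized Sf9 membrane reagent.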

Sequence | polyreactivity (PSR sort gate)
QVQLVESGGGLVQAGGSIRLSCAASGRILYGNAMGWYRQAPGKEREFVAAITFRGGSTYYADSVKGRFTISRDNAKNTVYLQMNSLKPEDTAVYYCNARGHCGWGTSMYYWGQGTQVTVSS | high polyreactivity
QVQLVESGGGLVQAGGSLRLSCAASGLTFGTNSMGWYRQAPGKEMELVAAINRGGGSTYYADSVKGRVTISRDNAKNTVYLQMNSLKPEDTAVYYCAKSYSGSRTSDYWGQGTQVTVSS | high polyreactivity
QVQLVESGGGLVQAGGSLRLSCAASGGIFRKNAMGWYRQAPGKERELVAAISWDGDNTYADSVKGRFTISRDNAKNTVYLQMNSLKPEDTAVYYCAAETFTDYDYWGQGTQVTVSS | high polyreactivity
QVQLVESGGGLVQAGGSLRLRCAASGRTFWKNAMGWYRQEPRKECELVAAISWGGGSTYYADSVKGRFTISRDNAKNTVYLQMNSLKPEDTAVYYCNVYYRRVLLGFYYWGQGTQVTVSS | low polyreactivity
QVQLVESGGGLVQAGGSLRLSCAASGSTYYNALGWYRPAPGKERELVAAIRFRSGSTYYADSVKGRFTISRDNAKNTDYVQMNSLKPEDTAVYYCAADNKRSWRYAYNYWGQGTQVTVSS | high polyreactivity
QVQLVESGGGLVQAGGSLRLSCAASGFIFSGYAMGWYRQAPGKERELVAAIRWNGGRTYYADSVKGRFTISRDNAKNTVYLQMNSLKPEDTAVYYCAAGSGRDYGYRYFFWRYDYWGQGTQVTVSS | high polyreactivity
QVQLQESVGGLVQAGGSLRLSCAASGTIFRISDMGSYRQAPGKEREFVAAITYGANTYYADSGKGRFTISRDNAKNTVYLQMNSLKPEDTAVYYCAVPPVKETILDYWGQGTQVTVSS | low polyreactivity
QVQLVESGGGLVHAGGSLRLSCAASGSIFEFYAMGWYRQAPGKERELVAAITWDDGSTYYADSVKGRFTISRDNAKNTVYLQMNSLKPEDTAVYYCAASASVRGGGADQYVIAFDYWGQGTQVTVSS | low polyreactivity
QVQLVESGGGLVQAGGSLRLSCAASGGTFKLYAMGWYRQAPGKERELVAAISRRGGSTYYADSVKVRFTISRDNAKNTVYLQMNSLKPEDTAVYYCAAPGPTQSTQRGGYWGQGTQVTVSS | high polyreactivity
QEQLQESGGGLEQPGGSLRLSCAASGSISGSSTMGWYRQAQGKERELVASIAVGANTNYADSAKGRFTISRDNAKNPVYLQMNSLKPEDTAVYYCAVDYYIYYFHYWGQATQVTVSS | high polyreactivity
QVQLVESGVGLLQAGGSLRLSCAASGFIIVPYAMGWYIQAPGKERELVATITWRGDSTYYADSVKGRFTISRDNAKNTVYLQMNSLKPEDTAVYYCAKRVVRGKVDYWGQGTQVTVSS | low polyreactivity
QVQLVESGGGLVQAGGSLRLSCAASGFIFAYYAMGWYRQAPGKERELVAAISSSGGRTYYADSVKGRFTISRDNAKNTVYLQMNSLQPEDTAVYYCAATLSYYVGVRYDYWGQGTQVTVSS | high polyreactivity
QVQLVESGGCLVQAGGSLRLSCVASGRTFRRYAMGWYRQAPGKERELLSTITLNGGSTYYADSVKGRFTISRDNATNTVDLQMNSLKPEDTAVYDCKRCTNVVRRGVYSFGYDYWGEGTQVTVSS | low polyreactivity
QVQLVESGGGLVQAGGSLRLSCAASGSTFRGYAMGWYRQAPGKERELVAAITYISDSTYYADSVKGRFTLSRDNAKNTVYLQMNSLKPEDTAVYYCNAYYDGDWRYTSQETGDHWGQGTQVTVSS | low polyreactivity
QVQLVESGGGLVQAGGSLRLSCAASGSTFDTYAMGWYRQAPGKERELVAAISYRGGNTYYADSVKGRFTISRDNAKNTVYLQMNSLKPEDTAVYYCAASYFDPASIPVAFNYWGQGTQVTVSS | low polyreactivity
QVQLVESGVGLVQAGGSLRISCAASGGTFLWYAMGRYRQAPGKERELVADITYSGGSTYYADSVKGRFTISRDNAKNTVYLQMNSLKPEDTAVYYCATRGVSPSRPGYYWGQGTQVTVSS | high polyreactivity
QVQLVESGGGLVQAGGSLRLSCAASGSTFSQNALGWYRQAPGKDRELVAAITSGGITYYADSVKGRFTMSRDNAKNTVYLQMNSLKPEDTAVYYCAADFWPSGRGVAFDYWGQGTQVTVSS | low polyreactivity
QVQLLESGGGLVPSRGSLRLSCAASGFIFGHNTMGWYRQAPGKERELVARITSSGGGTNYADSVKGRFTISRDNAKNTVYLQMNSLKPEDTAVYYCAAELLYWGYYDYDYWGQGTQVTVSS | high polyreactivity
QVQLVESGGGLVQAGGSLRLTCAASGSIFEPYTKGWYRQAPAKERELVAAITGSGGSTFYADSVKARFTISRDNAKNTVYLQMNSLKPEDTAVYYCNANAYPYTDVDYWGQGTQVTVSS | low polyreactivity
QVQIVESGGGLVQAGGSLRLSCAASGRNFGRYAMGWYRHAPRKERELVATISSGGSTYYADSVKGRFTISRDNAKNTVYLPMNSLKQEDTAVYYCAADYLSYYLYEGSIKYGYWGQGTQVSVSS | high polyreactivity
QVQLVESGGGLVQAGGSLRLSCAASGITFVHYAMGWYRQAPGKERELVAAITVGDGGTYYADSVKGRFTISRDNAKNTVYLQMNSLKPEDTAVYYCAAGFYSYSWYVKLAYGYWGQGIQVTVSS | low polyreactivity
QVQLVESGGGLVQAGGSLRLSCAASGSIFYAYVMGWYRQAPGKERELVAAISSGGSTYYADSVKGRFTISRDNAKNTVYLQMNSLKPEDTAVYYCAVGRPSGWSYYTGGDYWGQGTQVTVSS | high polyreactivity

Sequence | polyreactivity (PSR sort gate)
QVQLVESGGGLVQAGGSLRLSCAASGSIFVPYAMGWYRQAPGKERELVAAISSGGSTNYADSVKGRFTISRDNAKNTVYLQMNSLKPEDTAVYYCNADYSVYIIADEYDYWGQGTQVTVSS | low polyreactivity
QVHLVESGGGLVQAGGSLRLSCAASGSTFYYYVMGWYRQAPGKETELVAAINSGGSTYYADSVKGRFTISRDNAKNTVYLQMNSLKPEDTAVYYCAKSWSYWYQYYYSGQGTQVTVSS | low polyreactivity
QVQLVESGGGLVQAGGSLSLSCAASGLIFITYAMGWYRQAPGKERELVATITLRGGSTYYADSVKGRFTISRDNAKNTVYLQMNSLKPEDTAVYYCAADVGYWGRSRGYPSDDYDYWGQGTQVTVSS | low polyreactivity
QVQLVESGGGLVQAGGSLRLSCAASGRIFLQYDMGWYRQAPGKERELVAGISSRGGSMYYADSVKGRFTISRDNAKNTVYLQMNSLKPEDTAVYYGAAQTKRIRYVYKHYYWGQGTQVTVSS | high polyreactivity
QVQLVQSGGGLVQAGGSLRLSCAASGRIFVNNAMGWYIQAPGKERELVAAISVSGTTTYYADSVKGRFTISRDNAKNTVYLQMNSLKPEDTAVFYCAAEGSTYQGAPGVYYWGQGTQVTVSS | high polyreactivity
QVQLVESRGGLVQAGGSLRLSCSASGRIFTTYAMGWYRQAPGKEREFVAAISRSGGSTYYADSVKGRFTISRDNAKNTVYLQMNSLKPEDTAVYYCAAVPTSNSLRSSFSYWGQGSQVTVSS | high polyreactivity
QVQLVESGGGLVQAGGSLRLSCAASGFTFANYAMGWYRQAPGKERELVASITRSGGSTYYADSVKGRFTISRDNAKNTVYLQMNSLKPEDTAVYYCAKDRRRWYYTRDYWGQGTQVTVSS | low polyreactivity
QVQLVESVGGLVQAGGSLRLSCAASGSTFAFNAMGWYRQAPGKEREFVAAITWRGGSTYYADSVKGRFTISRDNAKNTVYLQMNSLKPEDTAVYYCARRPGYALTWRVSGRYDYWGQGTQVTVSS | high polyreactivity
QVQLVESGGGLVQAGGSLSLSCAASGSNFKAYAMGWYRQAPGKERELVAAITKSGGRTYYADSVKGRFTISRDNAKNTVYLQMKSLNPEDTAVYSCAAVFRPDSSAYRYYYWGQGTQVTVST | high polyreactivity
QVQLVESGGGLVQAGGSLRLTCAASGYTFGHYAMGWYRQAPGKERELVAVITSGGSTNYADSVKGRFTISRDNAKNTVYLQMNSLKPEDTAVYYCAADLYFYYVWIRDYWGQGTQVTVSS | low polyreactivity
QVQLVESGGGLVQAGGSLRLSCAASGFIFVNKAMGWYRQAPGKERELVATISRGGSTNYADSVKGRFTISRDNAKNTVYLQMNSLKPEDTAVYYCNARRSVKVYGVDYWGQGTQVTVSS | high polyreactivity
QVQLVESAGGLVQAGGSLRLSCAASGSTFVTNVMGWYRQAPGKERELVAAISYSGGNTYFEDSVKGRFTISRDYAKNTVYLQMNSLKPEDTAVYSCAASYKPFKKMGYWGQGTQVTVSS | high polyreactivity
QVQLVESGGGLVQAGGSLRLSCAASGGTFGPYAMGWYRQAPGKERELVATIRSSGGRTYYADSVKGRFTISRDNAKNTVYFQMNSLKPEDTAVYYCAATEFRYFEGGAYFEGYYWGQGTQVTVSS | low polyreactivity
QVQLVESGGGLVQAGGSLRLSCAASGSTFQYYAMGWYRQAPGKERELVAAISYRGSTYYADSVKGRFTISRDNAKNTVYLQMNSLKPEDTAVYYCAAVNRPWYSFGYGYWGQGTQVTVSS | high polyreactivity
QVQLVESGGGLVQAGGSLRLSCAASGRIFGYYVMGWYRQAPGKDRELVATISRVGTTNYADSVKGRFTISRDNAKNTVYLQMNSLKPEDTAVYYCNADYTGHRGGNDYWGQGTQVTVSS | low polyreactivity
QVQLVESGGGLVQAGGSLRLSCAASGSTFGYYGMGWYRQAPGKERELVAAISTGGRTNYADSVKGRFTISRDNAKNTVYLQMNSLKPEDTAVYYCAADFLSAAYRPSWYRFDYWGQGTQVTVSS | low polyreactivity
QVQLVESGGGLVQAGGSLRLTCAASGLIFFTPYALGWYRQAPGTESELVAVITWRGASTYYADSVKGRFTISRDNAKHTVYFQMNSLKPEDTAVYYCAAKLCSVWKESYDSWGQGTQVTVSS | low polyreactivity
QVQLVESGGGLVQAGGSLRLSCAASGSTFSANDMGWDRQAPGKEREFVAAITTSDDSTYYADSVKGRYTISRDNAKNTVYLQMNSLKPEDTAVYYCNAYSGYSFFGLCFFYKYDYWGQGTQVTVSS | low polyreactivity
QVQLVESGGGLVQAGGSLRLSCAASGSTFVDYAMGWYRQAPGKERELVAAINSDGGGTYYADSVKGRFTISRDNAKNTVYLQMNSLKPEDTAVYYCNVEYEDYYAQRYGYDYWGQGTQVTVSS | low polyreactivity
QVQLVESGGGLVQAGGSLRLSCAASGRIFSIYAMGWYRQAPGKERELVAAIRSVGDTNYADSVKGRFTISRDNAKNTVYLQMNSLNPEDTAVYYCAAGTSDGGYHYDFWGQGSQVTVSS | high polyreactivity
QVQLVESGGGLVQAGGSLRLSCAASGSTFRYYAMGWYRQAPGKERELVARITSRAGRTYYADSVKGRFTLSRDNAKNTVYLQMNSLKPEDTAVYYCNTRDFSGYVHALSLYDYWGQGTQVTVSS | high polyreactivity
